According to PMC3141246 (Nucleic Acids Research, 2011):

Target: the molecule itself
Experiment: native gel or EMSA

B1: Rpp20, protein subunit of human nuclear RNase P (natural protein, UniProt O75817 1-140, looked up)
chain: MAENREPRGAVEAELDPVEYTLRKRLPSRLPRRPNDIYVNMKTDFKAQLARCQKLLDGGARGQNACSEIYIHGLGLAINRAINIALQLQAGSFGSLQVAANTSTVELVDELEPETDTREPLTRIRNNSAIHIRVFRVTPK
B1: binds.
